Source: the Human Domainome abundance scans (Beltran et al. 2025)
± gives the uncertainty stated by the source.

B1: COUP transcription factor 1, residues 83 to 159; numbered along this chain, P10589 (parent)
chain: HIECVVCGDKSSGKHYGQFTCEGCKSFFKRSVRRNLTYTCRANRNCPIDQHHRNQCQYCRLKKCLKVGMRREAVQRG
B2: Neutrophil cytosol factor 2, residues 456 to 514; numbered along this chain, P19878 (parent)
chain: LKKGSQVEALFSYEATQPEDLEFQEGDIILVLSKVNEEWLEGECKGKVGIFPKVFVEDC

Variants of: B1
Test: abundance fitness (aPCA) (normalised: wild type 0, dead -1); higher = more abundant; growth selection in yeast, the domain comes from the species named
Details: Homo sapiens

Variant | abundance fitness
R71C | -0.062 ± 0.062
R71K | 0.104 ± 0.049
R71G | -0.083 ± 0.034
R71N | -0.034 ± 0.062
K62Q | -0.001 ± 0.061
K62C | -0.257 ± 0.089
D9Y | -0.381 ± 0.2
R30V | 0.08 ± 0.12
R30A | -0.091 ± 0.18
Y16I | -0.297 ± 0.21
Y16T | -0.274 ± 0.11
Y16Q | 0.096 ± 0.094
R70N | 0.071 ± 0.092
R76V | -0.009 ± 0.045
N54I | 0.092 ± 0.094
N54R | -0.353 ± 0.045
N54T | -0.059 ± 0.059
N54W | -0.194 ± 0.053
N54D | -0.071 ± 0.079
Q75L | -0.007 ± 0.036
C59R | -0.848 ± 0.069
C59W | -1.02 ± 0.12
C59A | -0.668 ± 0.062
L61Y | -0.152 ± 0.068
L61P | -0.65 ± 0.088
L61T | -0.771 ± 0.092

Variant | abundance fitness
R60V | -0.157 ± 0.037
C7V | -0.597 ± 0.071
C7M | -0.84 ± 0.24
M69T | -0.719 ± 0.095
H52N | -0.1 ± 0.055
C4A | -1.04 ± 0.14
Q50Y | -0.066 ± 0.1
Q50N | 0.012 ± 0.11
L36M | -0.085 ± 0.095
K63T | -0.356 ± 0.057
G23R | -0.081 ± 0.079
G23V | -0.338 ± 0.11
Q55T | -0.101 ± 0.051
K14W | -0.423 ± 0.25
K14V | 0.115 ± 0.12
C56G | -0.786 ± 0.08
G77F | -0.317 ± 0.18
R41A | 0.207 ± 0.049
R41H | 0.051 ± 0.12
K29N | -0.01 ± 0.18
K29T | 0.026 ± 0.058
Q57C | -0.093 ± 0.14
Q57H | 0.054 ± 0.12
Q57N | 0.163 ± 0.12
I2R | -0.413 ± 0.094
I2A | -0.829 ± 0.29

Variant | abundance fitness
P47A | -0.008 ± 0.045
V67K | -0.127 ± 0.046
V67W | -0.325 ± 0.053
V67L | -0.118 ± 0.038
V67Q | 0.036 ± 0.046
F27R | -0.515 ± 0.071
Y58L | -0.378 ± 0.044
F19E | 0.166 ± 0.069
T37F | -0.101 ± 0.12
Q18R | -0.041 ± 0.053
C24E | -1.1 ± 0.17
R34G | 0.131 ± 0.048
I48T | -0.094 ± 0.056
I48R | -0.461 ± 0.065
E22G | 0.089 ± 0.047
E22W | -0.061 ± 0.071
E22F | -0.226 ± 0.17
V74S | -0.199 ± 0.044
V5E | -0.042 ± 0.1
N43F | -0.22 ± 0.2
N43H | -0.319 ± 0.19
C21E | -0.929 ± 0.15
R53Y | 0.224 ± 0.23
S31V | -0.155 ± 0.061

Variants of: B2
Test: as above
Details: Homo sapiens

Variant | abundance fitness
T16C | -0.426 ± 0.14
T16R | -0.457 ± 0.14
T16I | -0.926 ± 0.23
T16A | -0.475 ± 0.16
T16G | -0.192 ± 0.089
T16L | -0.076 ± 0.11
T16Q | -0.158 ± 0.43
T16M | -0.164 ± 0.4
T16N | -0.304 ± 0.14
T16S | -0.153 ± 0.097
T16K | 0.397 ± 0.46
T16W | -0.651 ± 0.37
T16V | -0.36 ± 0.098
T16D | -0.428 ± 0.12
T16F | -0.609 ± 0.2
T16E | -0.368 ± 0.35
T16H | -0.617 ± 0.18
S5P | -0.804 ± 0.33
S5R | -0.116 ± 0.14
S5T | -0.037 ± 0.23
S5D | 0.797 ± 0.15
S5V | -0.056 ± 0.13
S5F | 0.011 ± 0.13

Variant | abundance fitness
S5I | -0.299 ± 0.3
S5Q | -0.365 ± 0.27
S5M | 0.216 ± 0.18
S5A | 0.353 ± 0.16
S5G | -1.17 ± 0.48
S5Y | 0.219 ± 0.19
S5L | -0.289 ± 0.12
S5K | 0.309 ± 0.23
S5E | 0.099 ± 0.37
E14R | 0.096 ± 0.084
E14L | -0.231 ± 0.14
E14Y | -0.215 ± 0.12
E14A | 0.059 ± 0.12
E14W | -0.168 ± 0.16
E14K | 0.217 ± 0.18
E14M | -0.483 ± 0.33
E14D | -0.073 ± 0.12
E14H | 0.236 ± 0.11
E14C | -0.301 ± 0.12
E14G | -0.233 ± 0.11
E14P | 0.023 ± 0.19
E14I | -0.304 ± 0.13
E14V | 0.027 ± 0.089

Variant | abundance fitness
E14N | 0.074 ± 0.11
E14S | -0.123 ± 0.083
E14T | 0.319 ± 0.093
E14F | -0.236 ± 0.11
E14Q | 0.068 ± 0.33
P18A | -0.284 ± 0.14
P18D | 0.315 ± 0.12
P18H | -0.537 ± 0.17
P18C | -0.691 ± 0.14
P18F | -0.634 ± 0.14
P18E | -0.48 ± 0.27
P18G | -0.613 ± 0.14
E8L | 0.433 ± 0.1
E8P | -0.363 ± 0.24
E8R | 1.16 ± 0.095
E8M | 0.684 ± 0.12
E8V | 0.959 ± 0.091
E8T | 0.126 ± 0.25
E8I | 0.744 ± 0.2
E8Q | 0.472 ± 0.15
E8G | -0.093 ± 0.28
E8S | 0.048 ± 0.12
E8F | 0.452 ± 0.17

Variant | abundance fitness
E8A | 0.164 ± 0.23
E8K | 1.17 ± 0.17
E8N | 0.524 ± 0.31
Q17I | -0.393 ± 0.11
Q17P | -1.03 ± 0.34
Q17N | -0.093 ± 0.11
Q17G | 0.478 ± 0.067
Q17L | -0.266 ± 0.11
Q17C | 0.148 ± 0.088
Q17R | 0.296 ± 0.077
Q17E | -0.504 ± 0.3
Q17H | -0.123 ± 0.13
Q17A | 0.324 ± 0.088
Q17S | 0.615 ± 0.07
Q17T | 0.2 ± 0.1
Q17V | -0.643 ± 0.13
Q17K | 0.796 ± 0.18
Q17F | -0.793 ± 0.2
Q17W | -0.753 ± 0.25
Q17Y | -0.09 ± 0.12
Q17M | -0.27 ± 0.36
V7D | -0.907 ± 0.49
